Measurements as given in paper PMC10593786.
Values belong to the substance of their own block, whether it stands above or below them.

Key:
[1] = molecular target: FLMyo6 (T888D.Q892E.V903D) (human) (UniProt Q9UM54)
[2] = molecular target: Jo-Myo6-In heavy chain (Streptococcus pneumoniae | human); assay: co-purification, SDS-PAGE; CaM co-expressed with Jo-Myo6-In in Sf9 cells, purified by the Flag tag of the heavy chain, read by SDS-PAGE
[3] = molecular target: full-length wild-type Myo6, small insert isoform (FLMyo6 SI (WT)) (human) (UniProt Q9UM54)

maximal actin-activated ATPase rate of FLMyo6 (T888D.Q892E.V903D) upon GIPC1 addition (loss of gating) [1]: 2 fold
Substance: FLMyo6 (T888D.Q892E.V903D) (from UniProt Q9UM54-5 1-1253; P0DP23 1-149) (complex)

Substance: calmodulin (CaM) (from UniProt P0DP23 1-149) (natural protein)
stoichiometry N (CaM per heavy chain) [2]: 2

decrease in maximal actin-activated ATPase activity per Head of FLMyo6 (WT, no-insert isoform) upon addition of GIPC1, compared to monomeric MD^Ins2 (gating in a dimer) [3]: 50%
Substance: full-length wild-type Myo6, small insert isoform (FLMyo6 SI (WT)) (from UniProt Q9UM54-2 1-1262; P0DP23 1-149) (complex)
